Experimental data published in patent US20230416410A1 (ZOETIS SERVICES, published 2023).
Where a chain is given by its changes, count along the chain named. Blank lines part the entries; values can stand above or below the binder they belong to.

What was measured:
Test in all cases: SPR Biacore, biotinylated receptor on SA sensor, pH 7.4, 15 C
[1] = biological target: T1, CTLA4 Fc bIgG1aWin (canine; bovine, UniProt Q9XSI1 36-161, limits assumed)
T1 construct: No linker
T1 sequence: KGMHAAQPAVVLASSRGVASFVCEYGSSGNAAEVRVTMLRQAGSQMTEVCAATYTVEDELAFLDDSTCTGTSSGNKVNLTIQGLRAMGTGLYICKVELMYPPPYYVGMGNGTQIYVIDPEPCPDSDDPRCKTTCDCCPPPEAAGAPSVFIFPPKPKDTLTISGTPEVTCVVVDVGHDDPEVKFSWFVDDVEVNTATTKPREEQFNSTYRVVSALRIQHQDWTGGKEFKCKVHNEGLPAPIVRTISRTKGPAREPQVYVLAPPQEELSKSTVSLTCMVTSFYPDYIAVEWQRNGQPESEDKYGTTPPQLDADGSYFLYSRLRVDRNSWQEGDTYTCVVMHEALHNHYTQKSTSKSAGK
Procedure: (§1) A Biacore SPR binding assay was designed to test the affinity of bovine IgG subclasses to bFcgR1, bFcgR2 and bFcgR3. All reported KD's were measured by Biacore (Cytiva, Marlborough, MA, USA) using series S SA sensor. Biotinylated-bovine FcgR1, R2 and R3 were captured on the sensor surface using a modified SA capture method to reach the desired surface density. 10 mM HEPES, 150 mM NaCl, 3 mM EDTA, 0.05% v/v surfactant P20, pH7.4 buffer was used as the running and titration buffer. Various concentrations of bovine CTLA4-Fc fusions or mAbs were titrated and flowed over the receptor surface and affinities were determined using Biacore T200 Evaluation software (Cytiva, Marlborough, MA, USA) with 1:1 binding model. The method of double referencing has been applied where the reference flow cell was subtracted from the flow cell containing immobilized receptors and blank runs containing buffer only were subtracted out from all runs. Flow cells were regenerated using 10 mM Glycine pH1.5. Runs were performed at 15° C.
(§2) The ability to knock out binding to bovine Fc gamma receptors was evaluated by comparing SPR Biacore bFcgR affinity of bIgG1a and bIgG1b wildtype Fc to the bIgG1a and bIgG1b mutations, described above. All mutations made to bIgG1 are identical for the a and b allotypes. Biacore methods for bFcgR1, R2, and R3 were performed as described in Example 1.

[2] = biological target: T2, CTLA4 Fc bIgG1a (canine; bovine, UniProt Q9XSI1 36-161, limits assumed)
T2 construct: No linker; also called bIgG1a wildtype; CTLA4 Fc bIgG1a wildtype
T2 sequence: T1 sequence with A142L, A143P, A145G
Procedure: as §1, §2

[3] = biological target: T3, CTLA4 Fc bIgG3aWinSAS (canine; bovine, UniProt Q9XSI1 36-161, limits assumed)
T3 construct: No linker
T3 sequence: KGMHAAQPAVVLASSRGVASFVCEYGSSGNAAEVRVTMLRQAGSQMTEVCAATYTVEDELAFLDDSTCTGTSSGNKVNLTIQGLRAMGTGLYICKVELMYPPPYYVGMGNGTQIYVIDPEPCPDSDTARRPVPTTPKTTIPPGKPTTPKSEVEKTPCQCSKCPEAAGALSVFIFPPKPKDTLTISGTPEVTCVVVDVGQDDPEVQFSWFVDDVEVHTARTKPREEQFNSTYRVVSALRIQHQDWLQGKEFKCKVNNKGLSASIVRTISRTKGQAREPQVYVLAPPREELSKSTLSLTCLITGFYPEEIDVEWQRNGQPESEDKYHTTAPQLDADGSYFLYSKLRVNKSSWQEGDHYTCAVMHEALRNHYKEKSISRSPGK

[4] = biological target: T4, CTLA4 Fc bIgG3aSAS (canine; bovine, UniProt Q9XSI1 36-161, limits assumed)
T4 construct: No linker
T4 sequence: T3 sequence with A165P, A166L, A168G

[5] = biological target: T5, CTLA4 Fc bIgG3aSAP (canine; bovine, UniProt Q9XSI1 36-161, limits assumed)
T5 construct: No linker
T5 sequence: T3 sequence with A165P, A166L, A168G, S262P

Kd [1]: 2.79 nM
Kd [2]: 3.37 nM
binding result [3]: no binding
binding result [4]: no binding
binding result [5]: no binding
B1: recombinant bovine FcgR2 (receptor)
chain: KPDLPKAVVTIQPAWINVLREDHVTLTCQGTSFSAGNLTTWFHNGSSIHTQKQPSYSFRAGSNDSGSYRCQREQTSLSDPVHLDVISDWLLLQTPSLVFQEGEPIMLRCHSWRNQPLNKITFYQDRKSKIFSYQRTNFSIPRANLSHSGQYHCTAFIGKMLHSSQPVNITVQESSSSGPSSMTHHHHHHAGLNDIFEAQKIEWHE
modifications: biotin on the BAP tag (BirA)
notes: also called bFcgR2; bFcgRII

binding result [1]: no binding
Kd [2]: 14.3 nM
B2: recombinant bovine FcgR3 (receptor)
chain: DTQTADPSKAVVLLDPQWNHVLTNDRVTLKCQGDYPVEDNSTKWWHNGTLISSQTPSYFIADVKVQDSGEYKCQTGLSAPSDPVKLEVHVGWLLLQVAQRVVNVGKPIRLKCHSWKKTPVAKVQYFRNGRGKKYSHGNSDFHIPEAKLEHSGSYFCRGIIGSKNESSESVQITVQAPETLQTVSSFFLPWHQHHHHHHAGLNDIFEAQKIEWHE
modifications: biotin on the BAP tag (BirA)
notes: also called bFcgR3; bFcgRIII
